Experimental data reported in patent US20220098295A1 (ALLERGAN, published 2022).
Residue numbers refer to the chain shown, from its start.

B1: anti-PDGF BB HCAb P36E10 (antibody, IgG1, V domains shown)
VH: QVQLLESGGGLVQPGGSLRLSCAASGFTFSSYAMSWVRQAPGKGLEWVSAISGSGGSTYYADSVKGRFTISRDNSKNTLYLQMNSLRAEDTAVYYCASNSGFFTLSGFIRYKFWGQGTLVTVSS
notes: Heavy chain only antibody, no light chain; VH fused to IgG1 hinge and CH2/CH3; not shown: human IgG1 hinge region and CH2/CH3 regions (no CH1)
B2: anti-PDGF BB HCAb P36A4 (antibody, IgG1, V domains shown)
VH: B1 VH with A23P, S98R, S100N, F102I, T104M, L105F, S106R, F108V, F113S
notes: as for B1
B3: anti-PDGF BB HCAb P36C12 (antibody, IgG1, V domains shown)
VH: B1 VH with S98R, G101E, F102I, T104M, L105V, S106K, F108V, R110Q, K112N, F113S
notes: Heavy chain only antibody, no light chain; VH fused to IgG1 hinge and CH2/CH3; It is printed in places as P36012, which looks like a misprint of P36C12; also called P36012; not shown: human IgG1 hinge region and CH2/CH3 regions (no CH1)
B4: anti-PDGF BB HCAb P36E8 (antibody, IgG1, V domains shown)
VH: B1 VH with G101E, F102L, T104K, L105V, S106N, F108V, K112D
notes: as for B1
B5: anti-PDGF BB HCAb P36A3 (antibody, V domains shown)
VH: B1 VH with G101V, F103S, S106K, I109L, R110Q
notes: Heavy chain only antibody, no light chain; VH fused to IgG1 hinge and CH2/CH3 and made in CHO cells as fully human recombinant HCAb; It was captured by anti-human IgG Fc in the SPR assay; not shown: human IgG1 hinge region and CH2/CH3 regions (no CH1)
B6: P36F3 (bispecific antibody, part only; not given: linker, domain order, Fc, V domains shown, not shown: another chain or arm of the molecule; a dimerising Fc or GST; small tags and cut ends)
VH 1: QVQLVESGGGLVQPGGSLRLSCAASGFTFSSYWMHWVRQAPGKGLVWVSRINSDGSSTSYADSVKGRFTISRDNAKNTLYLQMNSLRAEDTAVYYCAKDKGITMVRGVIHFDYWGQGTLVTVSS
VH 2: QVQLVESGGGLVQPGGSLRLSCAASGFTFSSYWMHWVRQAPGKGLVWVSRINSDGSSTSYADSVKGRFTISRDNAKNTLYLQMNSLRAEDTAVYYCAREGYSSGGQFDYWGQGTLVTVSS
B7: anti-PDGF BB HCAb P36F3 (antibody, IgG1, V domains shown)
VH: B6 VH 1
notes: as for B1

Assays:
[1] = biological target: T1, human PDGF-BB (R&D system, 220-BB) (human, UniProt P01127 82-190, biotinylated in the blocking ELISA of Example 4 (sites not given); unlabelled in the SPR assay); test: SPR (Biacore T200, 25 C), HCAb captured by anti-human IgG Fc, PDGF-BB 0.625-10 nM as analyte, 1:1 model
T1 construct: Bought protein (R&D Systems), a homodimer of two B subunits; also called human biotinylated PDGF-BB
T1 sequence (P01127 82-190 limits assumed): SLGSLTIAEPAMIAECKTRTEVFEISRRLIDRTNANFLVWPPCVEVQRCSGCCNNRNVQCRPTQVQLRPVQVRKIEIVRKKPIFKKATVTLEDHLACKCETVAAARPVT
Procedure: (§1) Anti-human IgG Fc antibody was directly immobilized across CM5 biosensor chip (GE Healthcare) using a standard coupling kit (GE Healthcare, BR-1008-39) according to the manufacturer's instructions. Purified anti-PDGF-BB HCAb molecules were diluted in running buffer HBS-EPB (GE Healthcare, BR-1006-69) at 0.5 to 1.0 μg/ml and captured on the coupled across anti-human IgG Fc surface. A 2-fold serial dilution of human PDGF-BB (R&D system, 220-BB) range from 0.625 to 10 nM were injected over anti-PDGF-BB HCAb captured surface at a flow rate of 30 μl/min. Associating rates (Ka) and dissociation rates (Kd) were calculated based on 1:1 Langmuir binding model with BIAcore T200 evaluation software version 2.0 (GE Healthcare). The equilibrium dissociation constant (Kd) was determined by the ratio Koff/Kon.

[2] = biological target: T1, human PDGF-BB (R&D system, 220-BB); test: blocking ELISA: HCAb dilutions with 2 nM biotinylated PDGF-BB, binding to coated PDGFRβ-Fc
Procedure: Two micrograms per milliliter per well of PDGFRβ-Fc (R & D Systems) was coated on 96 well microtiter plates overnight at 4° C. In a separate plate, serial dilutions of anti-PDGF BB HCAb were incubated with 2 nM human biotinylated PDGF-BB (R&D Systems) for 1 hr. One hundred microliters of the anti-PDGF BB HCAb-PDGF-BB mix were applied to the PDGFRβ-Fc-coated microtiter plate for 1 hr. The detection antibody (anti-biotin HRP) was then added for 1 hr and the ELISA was developed with a chemiluminescent HRP substrate and read by an ELISA plate reader. Anti-PDGF BB HCAb blocked the binding of PDGF-BB to its receptor PDGFRβ and IC₅₀ of anti-PDGF BB HCAb blocking to PDGFRβ is summarized in Table 4.

[3] = biological target: T1, human PDGF-BB (R&D system, 220-BB); test: SPR (Biacore T200, 25 C), HCAb captured by anti-human IgG Fc, PDGF-BB as analyte
Procedure: as §1

[4] = biological target: T1, human PDGF-BB (R&D system, 220-BB); test: SPR (Biacore T200, 25 C), HCAb captured by anti-human IgG Fc, PDGF-BB as analyte; * over the limit of detection
Procedure: as §1

[5] = biological target: T1, human PDGF-BB (R&D system, 220-BB); test: Real-time sensorgram with response in nm (assay not given). Sample 'P36F3', association with rhPDGF BB at 25 - 500 nM.
[6] = biological target: T1, human PDGF-BB (R&D system, 220-BB); test: Real-time sensorgram with response in nm (assay not given). Sample 'P36F3', association with rhPDGF BB at 25 - 500 nM. The column is headed kdis(1/s).

| Binder | kon [1] [M⁻¹ s⁻¹] | IC50 [2] [nM] | Kd [3] [nM] | koff [3] [s⁻¹] | Kd [4] [nM] | koff [4] [s⁻¹] | Kd [5] [nM] | kon [5] [M⁻¹ s⁻¹] | koff [6] [s⁻¹] |
| --- | --- | --- | --- | --- | --- | --- | --- | --- | --- |
| B1 | 42100 | 21.4 | 0.455 | 1.92e-05 |  |  |  |  |  |
| B2 | 654000 | 3.77 | 0.00179 | 1.17e-06 |  |  |  |  |  |
| B3 | 1e+06 | 1.07 |  |  | < 0.001 | < 1e-06 |  |  |  |
| B4 | 243000 | 5.52 |  |  | < 0.00412 | < 1e-06 |  |  |  |
| B5 | 219000 | 7.75 |  |  | < 0.00457 | < 1e-06 |  |  |  |
| B6 |  |  |  |  |  |  | 0.0434 | 25300 | 1.1e-06 |
| B7 | 988000 | 1.71 | 0.00883 | 8.73e-06 |  |  |  |  |  |
